Data from the supplement of paper PMC10724198.
± gives the standard deviation of the averaged measurements.

Test system: Saccharomyces cerevisiae
Experiment: protein stability index of tFT-peptide fusion (C-terminal peptide) (PSI (0-1 scale)); higher = more stable (slower turnover)
Conditions: genetic background: wild type; temperature: 30 C
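Also: PSI is a weighted mean of sequencing reads over stability bins, variants kept only with over 10 reads, mCherry proximal and sfGFP distal, peptide attached via GGGS linker.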

| Sequence | protein stability index |
| --- | --- |
| VECLDTKTTCNI | 0.73 ± 0.035 |
| VEEDPSSQLVIF | 0.599 ± 0.01 |
| VEFGIFACFTRP | 0.6687 ± 0.0019 |
| VERDARGESCSR | 0.747 ± 0.18 |
| VFAFLKPTGKLV | 0.597 ± 0.05 |
| VFCGACRLHLCL | 0.69 ± 0.077 |
| VFCGGGRFRCSR | 0.651 ± 0.023 |
| VFDHVGWPFWSY | 0.714 ± 0.041 |
| VFGWAGVGGDCG | 0.674 ± 0.012 |
| VFHCFVSRRRFC | 0.65 ± 0.022 |
| VFHSSTRDSFVS | 0.751 ± 0.066 |
| VFIVARGLSLIV | 0.536 ± 0.014 |
| VFLRGGVLPLRR | 0.691 ± 0.012 |
| VFLRVLLECLDF | 0.5666 ± 0.0036 |
| VFNLSIPLPSFP | 0.707 ± 0.046 |
| VFPARTALFFPQ | 0.726 ± 0.05 |
| VFQFVLGVILGW | 0.5289 ± 0.0035 |
| VFSASCYSNSAR | 0.739 ± 0.032 |
| VFWGGGAVGSVR | 0.69 ± 0.071 |
| VGAAGGVGGSGG | 0.629 ± 0.048 |
| VGACGWRGWCVV | 0.664 ± 0.011 |
| VGAFEGDWGVRH | 0.671 ± 0.099 |
| VGAGLRMRVGEA | 0.669 ± 0.035 |
| VGCRVVPGAGEV | 0.666 ± 0.016 |
| VGEGSGEWKFLD | 0.809 ± 0.06 |

| Sequence | protein stability index |
| --- | --- |
| VGELGVFAPGGK | 0.5 ± 0.1 |
| VGFGFVRSLLVG | 0.6151 ± 0.005 |
| VGGGGAELCVVE | 0.667 ± 0.022 |
| VGGGGECCFLEG | 0.826 ± 0.1 |
| VGGGGRSTGVGK | 0.65 ± 0.044 |
| VGGGKRILVPRS | 0.691 ± 0.12 |
| VGGGLSLGGVWW | 0.691 ± 0.038 |
| VGGGRDLFFFKF | 0.602 ± 0.044 |
| VGGHGGVGGGMG | 0.651 ± 0.026 |
| VGGIVGWFCRGR | 0.698 ± 0.081 |
| VGGLGGVGGGMG | 0.654 ± 0.03 |
| VGGRAAIVRGGW | 0.6853 ± 0.0026 |
| VGGVAGSFIFSC | 0.759 ± 0.15 |
| VGGVGGGRAWWR | 0.685 ± 0.055 |
| VGKGALHCLPDL | 0.713 ± 0.0015 |
| VGKYVVTKNGGC | 0.694 ± 0.043 |
| VGPLIGQVGIDT | 0.748 ± 0.014 |
| VGPLYFPWSLNF | 0.692 ± 0.053 |
| VGPVDPGDSDGL | 0.699 ± 0.0065 |
| VGQPWRLHFILR | 0.648 ± 0.0062 |
| VGQVGAGAVPVG | 0.677 ± 0.037 |
| VGRESVVGEQFV | 0.625 ± 0.025 |
| VGRVGVRDGVVG | 0.613 ± 0.032 |
| VGRVGVREGVVG | 0.638 ± 0.067 |
| VGSGGGAPRVGR | 0.647 ± 0.072 |

| Sequence | protein stability index |
| --- | --- |
| VGSGGGKGLCRQ | 0.674 ± 0.048 |
| VGSRGWGRWGVA | 0.693 ± 0.047 |
| VGSWVEVWGVIG | 0.687 ± 0.041 |
| VGTFGAGGYAPD | 0.646 ± 0.078 |
| VGTQIGLWVAQV | 0.591 ± 0.041 |
| VGTRGARREVQT | 0.734 ± 0.07 |
| VGVGGRRYNVRG | 0.66 ± 0.013 |
| VGVGGVGRRAKI | 0.687 ± 0.075 |
| VGVGNRRWGGGV | 0.679 ± 0.014 |
| VGVGRRGGVGEG | 0.654 ± 0.029 |
| VGVRCVGVLFGV | 0.637 ± 0.0072 |
| VGVRRAGGARGW | 0.634 ± 0.088 |
| VGVSGEGFSWGG | 0.674 ± 0.019 |
| VGVSGEGFSWVG | 0.675 ± 0.021 |
| VGVWRGWDVDCH | 0.776 ± 0.061 |
| VGWCTGWFVGLV | 0.6652 ± 0.0063 |
| VGWGGGVEEVKG | 0.712 ± 0.017 |
| VHFECFLVPFLL | 0.525 ± 0.028 |
| VHGRAPTSRSGT | 0.72 ± 0.043 |
| VHRRRVSVGGGG | 0.69 ± 0.0092 |
| VHWRDARFLRGM | 0.658 ± 0.045 |
| VHWVVFSVPRQA | 0.73 ± 0.033 |
| VIGRRRLQDWII | 0.736 ± 0.081 |
| VIRGVVPVVRSV | 0.668 ± 0.037 |
| VIRRLSNPCILR | 0.663 ± 0.067 |

| Sequence | protein stability index |
| --- | --- |
| VITGGFVVGCCG | 0.623 ± 0.018 |
| VIYIEYIGRNFI | 0.631 ± 0.027 |
| VKEHRPQRNPSH | 0.675 ± 0.016 |
| VKEKKKDEKRKR | 0.747 ± 0.072 |
| VKENLCLLWVYR | 0.562 ± 0.013 |
| VKEVSVIKNHQG | 0.454 ± 0.11 |
| VKTIRVTKSVGD | 0.6941 ± 0.0057 |
| VKYPALMITGFW | 0.669 ± 0.015 |
| VLALPSSPLLPS | 0.643 ± 0.1 |
| VLARPQAKAPLG | 0.571 |
| VLGGSMWLDLVC | 0.781 ± 0.23 |
| VLGPFKKSIQVL | 0.522 ± 0.02 |
| VLGRLRVGRDRV | 0.7521 ± 0.0019 |
| VLGSSSKLGSLS | 0.647 ± 0.025 |
| VLGVVGNYFESA | 0.668 ± 0.078 |
| VLGWCLCGRTCG | 0.6579 ± 0.0013 |
| VLHGGKLFGFVR | 0.676 ± 0.017 |
| VLIFSSFRSLVF | 0.562 ± 0.081 |
| VLLAGPIPSALP | 0.662 ± 0.0079 |
| VLLGCRRAWVGF | 0.669 ± 0.018 |
| VLLHFRSFAPPV | 0.613 ± 0.008 |
| VLLYAPLLPPLA | 0.622 ± 0.018 |
| VLPRPLPALPPL | 0.683 ± 0.028 |
| VLRDLGVSLSRA | 0.785 ± 0.025 |
| VLRHRGEGGPGA | 0.67 ± 0.035 |

| Sequence | protein stability index |
| --- | --- |
| VLSAPPGLLSYT | 0.623 ± 0.053 |
| VLSGLPPGFTLV | 0.644 ± 0.012 |
| VLSSASRGSRCL | 0.707 ± 0.17 |
| VLSSSTLFFLVF | 0.584 ± 0.024 |
| VLTFVWLVGQGF | 0.581 ± 0.048 |
| VLVFPVVYWILR | 0.543 ± 0.038 |
| VNLSNLRPCPTR | 0.707 ± 0.065 |
| VPASVRRSAPVP | 0.664 ± 0.044 |
| VPAVGGFLMFIG | 0.638 ± 0.0094 |
| VPCSIQWNLDEL | 0.673 ± 0.055 |
| VPDDGVLLSVLE | 0.7182 ± 0.0017 |
| VPFFLSNSSHIK | 0.679 ± 0.051 |
| VPFQEGHVKRFL | 0.665 ± 0.019 |
| VPGRSPTKSTVS | 0.66808 ± 0.00013 |
| VPGWRVGGARSV | 0.746 ± 0.048 |
| VPLFLVPGLSAV | 0.602 ± 0.0083 |
| VPLGFPPPPLDP | 0.727 ± 0.038 |
| VPLRGPAPPRPR | 0.739 ± 0.035 |
| VPLRPFFPTLFP | 0.712 ± 0.063 |
| VPLSPVSSGAPD | 0.66 ± 0.04 |
| VPPHLLAPDPRL | 0.7158 ± 0.0066 |
| VPPLRPVAPCRG | 0.533 ± 0.014 |
| VPPLVSSSSLLL | 0.636 ± 0.082 |
| VPPPLRLWPLPV | 0.618 ± 0.076 |
| VPPPPPRLKRFA | 0.639 ± 0.035 |

| Sequence | protein stability index |
| --- | --- |
| VPPPRLPQPLFP | 0.717 ± 0.052 |
| VPRCLPVGLLFF | 0.71 ± 0.19 |
| VPRPFILTATSE | 0.675 ± 0.084 |
| VPRRSLLSPPPP | 0.668 ± 0.023 |
| VQGSRKGSRERW | 0.683 ± 0.065 |
| VQLHIDVRSFLF | 0.67 ± 0.014 |
| VQTIKPVPSGLR | 0.622 ± 0.078 |
| VQVRPVVTVPSK | 0.7 ± 0.068 |
| VQWTEFYWVRKG | 0.575 ± 0.037 |
| VRALGRDGIRQC | 0.602 ± 0.015 |
| VRCCFGGRGGIA | 0.653 ± 0.0079 |
| VRCGGPGRAGKG | 0.63 ± 0.052 |
| VRDRVLFVARGG | 0.6996 ± 0.00075 |
| VRFVVRSVSSFV | 0.5973 ± 0.0014 |
| VRFVVRVFQCSF | 0.466 ± 0.052 |
| VRGFFTLSGNLI | 0.716 ± 0.072 |
| VRGKGWRGGWWG | 0.682 ± 0.031 |
| VRGLGRLSRAEV | 0.77 ± 0.014 |
| VRGRGRQDVDGG | 0.699 ± 0.11 |
| VRGRGVYRIDKV | 0.716 ± 0.018 |
| VRLIGVSVGALE | 0.579 ± 0.068 |
